Patent publication US20160340422A1 (published 2016)

Experiments:
[1] = target: Human IL-17A (human, UniProt Q16552 24-155); experiment: ELISA
[2] = target: T1, Mouse IL-17A (mouse, UniProt Q62386 26-158); experiment: ELISA
T1 chain: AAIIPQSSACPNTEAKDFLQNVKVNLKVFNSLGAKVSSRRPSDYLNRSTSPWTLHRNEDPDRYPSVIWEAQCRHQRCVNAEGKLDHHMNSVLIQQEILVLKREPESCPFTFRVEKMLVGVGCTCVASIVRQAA

Sequence of Human IL-17A (Q16552 24-155): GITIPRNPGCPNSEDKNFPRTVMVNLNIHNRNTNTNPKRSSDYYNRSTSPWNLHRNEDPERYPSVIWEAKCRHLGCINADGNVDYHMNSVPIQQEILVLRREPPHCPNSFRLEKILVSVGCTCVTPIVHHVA

B1: Control antibody A (antibody, V domains shown)
VH: QVQLKESGPGLVQPSQTLSLTCTVSGFSLTNYYVHWVRQPPGKGLEWMGGVWNDGDTSYNSVLRSRLSITRDTSKSQVLLKMSSLQTEDTATYYCAREGREGFVGYYVMDAWGPGASVTVSS
VL: DIQMTQSPSFLSASVGERVTLSCKASQNINKYLDWFQQKLGEAPKLLIYNADNLHTGIPSRFSGSGSFSDFILTISSLQPEDDATYFCLQRESWPYTFGAGTKLELKR
Question: What does the source list for B1?
Answer: EC50 [1]: 0.088 nM; EC50 [2]: 0.088 nM
